What was measured:
[1] = tested on: retinal damage induced by light exposure; experiment: Rat model of retinal damage induced by light exposure; type: in vivo
Protocol: Rat models of retinal damage induced by light exposure are models that induce the cell death of retinal photoreceptor cells by light exposure and are universally used as model animals of retinal degeneration (Daniel T. Organisciak et al., (1996) Invest Ophthalmol Vis Sci. Vol. 37 (No. 11): p. 2243-2257). A 0.5% (W/V) tropicamide-0.5% phenylephrine hydrochloride ophthalmic solution was ocularly instilled under adaptation to darkness to rats adapted to darkness for 72 hours. Then, the rats were exposed to white light of 5500 Lux for 3 hours. The rats thus exposed were adapted again to darkness for about 24 hours and then raised for 2 days under light-dark conditions of ordinary raising. After euthanasia, the eyeballs were excised and fixed by dipping in a 3.7% (W/V) formaldehyde-0.5 to 1% (W/V) methanol-0.2% (W/V) picric acid fixative for 24 hours or longer. After paraffin embedding, thin sliced sections were prepared. The sections were stained with hematoxylin-eosin, and a nucleus count in an outer nuclear layer at the cross-section of the retina was determined to evaluate retinal damage. […] Immediately before light exposure of rats, 5 micro L of HTRA1-inhibiting peptide […] having a concentration of 0.04 mg/mL or 0.2 mg/mL was intravitreally administered under anesthesia. n=4 for a normal saline administration group, and n=5 for the other groups. […] The retinal protective effects of three HTRA1-inhibiting peptides prepared in Example 6 were evaluated using the rat models of retinal damage induced by light exposure, constructed in Example (5-1). The operation followed Example 5. n=6 for all groups.

[2] = tested on: human umbilical vein endothelial cells (HUVEC); experiment: HUVEC migration test; type: cell-based; conditions: 300 nM peptide in EGM growth medium; 2 hours
Protocol: HUVEC (Kurabo Industries Ltd.) was cultured for 18 hours under conditions of 37° C. and 5% CO2 in a medium (0.1% BSA-containing serum-free EGM) in which EBM™-2 basal medium (Lonza Walkersville, Inc.) containing 0.1% BSA was supplemented with EGM™-2 SingleQuots™ additive factor set except for serum and VEGF. Then, the cells were adjusted to 4×10^5 cells/mL with 0.1% BSA-containing serum-free EGM. 4×10^5 cells/mL of the HUVEC suspension was added at 50 μL/well to the upper layer of a chamber of Corning FluoroBlok HTS 96 Well Multiwell Permeable Support System with 3.0 μm High Density PET Membrane (Corning Inc.) having a gelatin-coated membrane. Then, each sample described below (medium 1, 2 or 3) was added at 210 μL/well to the lower layer of the chamber (n=3). […]
FluoroBlok HTS 96 Well Multiwell Support System supplemented with the cells and the sample was incubated for 2 hours under conditions of 37° C. and 5% CO2. […] The fluorescence intensity (excitation wavelength/fluorescence wavelength: 485 nm/535 nm) of each well was measured using a plate reader (ARVO-MX, PerkinElmer, Inc.), and the migrated cells were counted for each well according to the following expression.
Migrated cells=Mean fluorescence intensity of wells containing HUVEC (n=3)−Mean fluorescence intensity of blank wells (n=3).

ARPE-19 cells = experiment: VEGF mRNA induction test using human retinal pigment epithelial cell ARPE-19; type: cell-based; conditions: H2O2 500 μM, normal human serum complement 25%, HTRA1 1 μM, peptide 1 μM, 4 hours
Protocol: ARPE-19 cells were cultured until confluent in 12 mm Transwell with 0.4 μm Pore Polyester Membrane Insert, Sterile (Corning Inc.) under conditions of 37° C. and 5% CO2 using a DMEM/F-12 medium (Wako Pure Chemical Industries, Ltd.) containing 10% fetal bovine serum (FBS) and penicillin-streptomycin (Thermo Fisher Scientific Inc.). Then, the cells were cultured in FBS-free DMEM/F-12 for 5 days. H2O2 (final concentration: 500 μM) was added to the upper and lower layers of the chamber, and normal human serum complement (Quidel Corp.) (final concentration: 25%) was added to the upper layer of the chamber. […] Four hours later, the culture supernatant was removed, and the cells were washed with PBS. Then, mRNA was extracted using SuperPrep™ Cell Lysis & RT Kit for qPCR (Toyobo Co., Ltd.) and subjected to reverse transcription reaction. The mRNA level of VEGF was quantitatively analyzed by TaqMan Gene Expression Assays (Hs000900055_m1 and Hs02786624_g1; Thermo Fisher Scientific Inc.) using 7900HT Fast Real-Time PCR System (Applied Biosystems, Inc.). GAPDH was used in the correction of the mRNA level.

RPE cells = experiment: Rabbit retinal damage model by loading with high-fat diet containing hydroquinone (HFD-HQ); type: in vivo; conditions: HFD-HQ-loaded 3-year-old rabbits; 50 μL of 40 mg/mL intravitreally after 2 months of feeding; evaluated after 4 months
Description: Retinal damage models prepared using high-fat diet (HFD) and hydroquinone (HQ) are models in which oxidative stress is induced by a pro-oxidant to cause retinal damage. These models have been reported only for mice (Diego G. Espinosa-Heidmann et al., (2006) Invest Ophthalmol Vis Sci., Vol. 47 (No. 2): p. 729-737). Accordingly, 3-year-old JW rabbits were fed for 4 months with RC4 (Oriental Yeast Co., Ltd.) diet containing 1.5% (W/V) coconut oil-0.25% (W/V) cholesterol-1.5% (W/V) peanut oil-2.4% (W/V) hydroquinone (HFD-HQ) to construct rabbit retinal damage models. After euthanasia, the eyeballs were excised, and the anterior segment of the eye was removed by an external incision of about 5 mm from the corneal limbus. The vitreous body was further separated. Then, retina-choroid-sclera was fixed by dipping in 4% (W/V) paraformaldehyde fixative for 24 hours or longer. […] The stained choroid was observed under a fluorescence microscope (BZ-9000; Keyence Corp.). The area of stained retinal pigment epithelial (RPE) cells was determined to evaluate RPE cell damage.
The retinal protective effect of the HTRA1-inhibiting peptide H308 prepared in Example 1 was evaluated using the rabbit models. […]
After 4 months from the start of feeding, RPE cell hypertrophy in the model animals was evaluated. […]

HTRA1 (cat) = molecular target: T1, HTRA1 (cat) (Homo sapiens, UniProt Q92743); experiment: HTRA1 (cat) inhibitory activity using peptide substrate H2-Opt (Example 3-1); type: biochemical; conditions: method of (3-1); peptide 1.875 to 1,000 nM
T1 construct: The protease domain (158Gly to 373Lys), except for the N-terminal domain and the PDZ domain, of human HTRA1 (Q92743); made in house; host or cells: E. coli BL21 (DE3)
T1 sequence (Q92743 158-373): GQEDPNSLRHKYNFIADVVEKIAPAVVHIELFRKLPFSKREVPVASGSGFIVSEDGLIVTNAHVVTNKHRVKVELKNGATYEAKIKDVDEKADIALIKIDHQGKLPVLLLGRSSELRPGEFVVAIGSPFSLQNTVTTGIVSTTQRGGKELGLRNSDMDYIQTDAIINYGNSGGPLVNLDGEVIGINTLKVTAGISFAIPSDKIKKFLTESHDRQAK
Protocol: The protease domain (158Gly to 373Lys), except for the N-terminal domain and the PDZ domain, of human HTRA1 (Q92743) was used as HTRA1 (cat) to construct a HTRA1 (cat) expression vector. The desired DNA fragment was amplified by PCR ((94° C. for 15 sec, 60° C. for 30 sec, and 68° C. for 45 sec)×30 cycles) with a human HTRA1-inserted plasmid (GeneCopoeia, Inc.; GC-M0558) as a template using the following primers and KOD-plus-(Toyobo Co., Ltd.).
A substrate peptide H2-Opt (Mca-IRRVSYSFK(Dnp)K) (Peptide Institute, Inc.: SEQ ID NO: 54, FIG. 8) was dissolved at 10 mM in DMSO, diluted with an assay buffer (50 mM borate and 150 mM NaCl, pH 8.5), and used at a final concentration of 10 μM. HTRA1 (HTRA1 (cat) or HTRA1 (full)) and each HTRA1-inhibiting peptide diluted with an assay buffer were mixed at 25 μL each and reacted at 37° C. for 20 minutes. Then, 50 μL of the substrate diluted with an assay buffer was added thereto. A fluorescent signal (excitation at 328 nm/emission at 393 nm) was measured using Enspire (PerkinElmer, Inc.). […]
The substrate peptide decomposition rate of the HTRA1-inhibiting peptide at each concentration was calculated. When the decomposition rate at an inhibitor concentration of 0 nM was defined as 100%, the HTRA1 (cat) and HTRA1 (full) inhibitory activity of each HTRA1-inhibiting peptide was evaluated (FIGS. 2 and 3).

B1: H308_D1G_S16A: H308 derivative, 1Asp substituted by Gly and 16Ser by Ala, SEQ ID NO: 24 (FIG. 36) (protein)
chain: GPQFGLFSKYRTPNCADHAGMACVALYEPVCGSDMSTYENECVLCMKIREGGHNIKIIRNGPCGG
modifications: peptide H308_D1G_S16A
nucleus count in an outer nuclear layer at the cross-section of the retina ([1]; 0.2 and 1 μg/eye, n=6): suppressed decrease in nucleus count in an outer nuclear layer
migration of HUVEC induced in the serum-containing medium [2]: suppressive effect on the migration of HUVEC
expression of VEGF mRNA (ARPE-19 cells): confirmed to suppress the expression of VEGF

B2: H321AT_D1G_S16A: peptide derivative, amino acid sequence SEQ ID NO: 28 (FIG. 40) (protein)
chain: GPQFGLFSKYRTPNCADFDGMACYAFYEPVCGSDMSTYANECTLCMKIREGGHNIKIIRNGPCGG
modifications: peptide H321AT_D1G_S16A
nucleus count in an outer nuclear layer at the cross-section of the retina ([1]; 0.2 and 1 μg/eye, n=6): suppressed decrease in nucleus count in an outer nuclear layer

B3: H322AT_D1G_S16A: peptide derivative, amino acid sequence SEQ ID NO: 29 (FIG. 41) (protein)
chain: GPQFGLFSKYRTPNCAQHEGMACYALYEPVCGSDMSTYANECTLCMKIREGGHNIKIIRNGPCGG
modifications: peptide H322AT_D1G_S16A
nucleus count in an outer nuclear layer at the cross-section of the retina ([1]; 0.2 and 1 μg/eye, n=6): suppressed decrease in nucleus count in an outer nuclear layer

B4: H308: SPINK2 mutant HTRA1-inhibiting peptide, amino acid sequence SEQ ID NO: 9 (FIG. 21) (protein)
chain: DPQFGLFSKYRTPNCSDHAGMACVALYEPVCGSDMSTYENECVLCMKIREGGHNIKIIRNGPCGG
modifications: peptide H308
nucleus count in an outer nuclear layer at the cross-section of the retina ([1]; 5 micro L of 0.04 mg/mL or 0.2 mg/mL intravitreally immediately before light exposure): effect of suppressing decrease in nucleus count in an outer nuclear layer was confirmed
hypertrophy of RPE cells, average area (RPE cells): exhibited a suppressive effect on the hypertrophy of RPE cells
hypertrophy of RPE cells, number of RPE cells having a cell area of 1500 μm^2 or larger (RPE cells): exhibited a suppressive effect on the hypertrophy of RPE cells

B5: wild-type SPINK2: human serine protease inhibitor Kazal-type 2, control, amino acid sequence SEQ ID NO: 1 (FIG. 13) (protein, listed as Homo sapiens)
chain: DPQFGLFSKYRTPNCSQYRLPGCPRHFNPVCGSDMSTYANECTLCMKIREGGHNIKIIRNGPC
HTRA1 (cat) inhibitory activity (decomposition rate of peptide substrate) (HTRA1 (cat)): no HTRA1 inhibitory activity
